From PMC5816949, “Highly Sensitive Colorimetric Biosensor for Staphylococcal Enterotoxin B by a Label-Free Aptamer and Gold Nanoparticles”
Like-named read-outs stand apart in the source and are kept apart here.

How the values were obtained:
[1] = molecular target: Staphylococcal enterotoxin B (SEB, r-SEB) (Staphylococcus aureus, UniProt P01552 28-266); assay: AuNP colorimetric aggregation assay; 240 nM random DNA; conditions: protein: recombinant; label: none
[2] = molecular target: Staphylococcal enterotoxin B (SEB, r-SEB) (Staphylococcus aureus, UniProt P01552 28-266)

B1: random ssDNA (RDNA) (ssDNA)
DNA: CGTAGTCTAGTGTCGATTAGTTTCCTTGAGACCTTGTGCT
B1: no binding [1].

B2: SEB2 aptamer (ssDNA)
DNA: TAGCTCACTCATTAGGCACGGGTAGGCCATAATATCTTATTAGCGTAATTCTGCGATTGGCATAGTTAAGCCAGCC
B2: binds [2].
